Test results from paper PMC11189300, “Structure of the human KMN complex and implications for regulation of its assembly” (Nature Structural & Molecular Biology, 2024).
Numbering of substitutions follows the chain as printed. In names and notes the source's numbering stands.

T1: DSN1 (subunit of Mis12C in the KMN structure) (human, UniProt Q9H410 1-356)
T1 construct: DSN1, human; also called DSN1^SORT-HIS; source: Tnao38 insect cells (baculovirus), co-expressed in Mis12C, purified (Talon, SEC)
T1 sequence (looked up): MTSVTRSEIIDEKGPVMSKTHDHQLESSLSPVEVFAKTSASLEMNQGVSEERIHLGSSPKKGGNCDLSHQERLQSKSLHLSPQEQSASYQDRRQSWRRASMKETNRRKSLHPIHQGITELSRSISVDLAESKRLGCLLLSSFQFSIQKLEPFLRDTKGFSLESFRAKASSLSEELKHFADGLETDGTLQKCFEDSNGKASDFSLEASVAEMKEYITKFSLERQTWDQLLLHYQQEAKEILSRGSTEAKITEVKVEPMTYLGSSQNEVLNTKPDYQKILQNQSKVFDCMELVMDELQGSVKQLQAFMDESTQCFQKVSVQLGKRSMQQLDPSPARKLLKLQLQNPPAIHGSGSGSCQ

B1: KNL1 residues 2,021–2,342 (domain or fragment, human, UniProt Q8NG31 2021-2342, looked up)
chain: GKLVQSAQNEREKLQIKIDEMDKILKKIDNCLTEMETETKNLEDEEKNNPVEEWDSEMRAAEKELEQLKTEEEELQRNLLELEVQKEQTLAQIDFMQKQRNRTEELLDQLSLSEWDVVEWSDDQAVFTFVYDTIQLTITFEESVVGFPFLDKRYRKIVDVNFQSLLDEDQAPPSSLLVHKLIFQYVEEKESWKKTCTTQHQLPKMLEEFSLVVHHCRLLGEEIEYLKRWGPNYNLMNIDINNNELRLLFSSSAAFAKFEITLFLSAYYPSVPLPSTIQNHVGNTSQDDIATILSKVPLENNYLKNVVKQIYQDLFQDCHFYH
notes: KNL1 (CASC5), human, C-terminal region, residues 2,021–2,342; numbering of isoform 1 of the CASC5 gene; also called KNL1_(2,021–2,342); Knl1_(2,021–2,342); source: E. coli BL21(DE3)-Codon-plus-RIPL, purified (glutathione-agarose, TEV cleavage, SEC)
B2: SPC25_(92–224) (domain or fragment, human, UniProt Q9HBM1 92-224, looked up)
chain: KKQELEVLTANIQDLKEEYSRKKETISTANKANAERLKRLQKSADLYKDRLGLEIRKIYGEKLQFIFTNIDPKNPESPFMFSLHLNEARDYEVSDSAPHLEGLAEFQENVRKTNNFSAFLANVRKAFTATVYN
notes: SPC25, human, residues 92–224 (RWD domain); source: E. coli BL21(DE3)-codon-plus-RIPL, co-purified with SPC24 (glutathione-agarose, 3C protease, SEC)
B3: SPC24/SPC25^L154A-L176A (complex, human)
chain 1: MAAFRDIEEVSQGLLSLLGANRAEAQQRRLLGRHEQVVERLLETQDGAEKQLREILTMEKEVAQSLLNAKEQVHQGGVELQQLEAGLQEAGEEDTRLKASLLQLTRELEELKEIEADLERQEKEVDEDTTVTIPSAVYVAQLYHQVSKIEWDYECEPGMVKGIHHGPSVAQPIHLDSTQLSRKFISDYLWSLVDTEW
chain 2: MVEDELALFDKSINEFWNKFKSTDTSCQMAGLRDTYKDSIKAFAEKLSVKLKEEERMVEMFLEYQNQISRQNKLIQEKKDNLLKLIAEVKGKKQELEVLTANIQDLKEEYSRKKETISTANKANAERLKRLQKSADLYKDRLGLEIRKIYGEKAQFIFTNIDPKNPESPFMFSLHANEARDYEVSDSAPHLEGLAEFQENVRKTNNFSAFLANVRKAFTATVYN
notes: SPC24, human; SPC25, human, L154A and L176A; limits not restated, likely full length; GST cleaved off with 3C protease; also called SPC^M2; source: E. coli BL21(DE3)-codon-plus-RIPL, purified (glutathione-agarose, 3C protease, SEC)
B4: SPC24^Y138A/SPC25 (complex, human)
chain 1: B3 chain 1 with Y138A
chain 2: B3 chain 2 with A154L, A176L
notes: SPC24, human, Y138A; SPC25, human; limits not restated, likely full length; GST cleaved off with 3C protease; also called SPC^M1; source: E. coli BL21(DE3)-codon-plus-RIPL, purified (glutathione-agarose, 3C protease, SEC)
B5: Mis12 complex (Mis12C), full length: MIS12, PMF1, NSL1, DSN1 (complex, human)
chain 1: MSVDPMTYEAQFFGFTPQTCMLRIYIAFQDYLFEVMQAVEQVILKKLDGIPDCDISPVQIRKCTEKFLCFMKGHFDNLFSKMEQLFLQLILRIPSNILLPEDKCKETPYSEEDFQHLQKEIEQLQEKYKTELCTKQALLAELEEQKIVQAKLKQTLTFFDELHNVGRDHGTSDFRESLVSLVQNSRKLQNIRDNVEKESKRLKIS
chain 2: MAEASSANLGSGCEEKRHEGSSSESVPPGTTISRVKLLDTMVDTFLQKLVAAGSYQRFTDCYKCFYQLQPAMTQQIYDKFIAQLQTSIREEISDIKEEGNLEAVLNALDKIVEEGKVRKEPAWRPSGIPEKDLHSVMAPYFLQQRDTLRRHVQKQEAENQQLADAVLAGRRQVEELQLQVQAQQQAWQALHREQRELVAVLREPE
chain 3: MAGSPELVVLDPPWDKELAAGTESQALVSATPREDFRVRCTSKRAVTEMLQLCGRFVQKLGDALPEEIREPALRDAQWTFESAVQENISINGQAWQEASDNCFMDSDIKVLEDQFDEIIVDIATKRKQYPRKILECVIKTIKAKQEILKQYHPVVHPLDLKYDPDPAPHMENLKCRGETVAKEISEAMKSLPALIEQGEGFSQVLRMQPVIHLQRIHQEVFSSCHRKPDAKPENFITQIETTPTETASRKTSDMVLKRKQTKDCPQRKWYPLRPKKINLDT
chain 4: T1 sequence (looked up)
notes: MIS12, human, subunit of the Mis12 complex; PMF1, human, subunit of the Mis12 complex; NSL1, human, subunit of the Mis12 complex; DSN1, human, subunit of the Mis12 complex (DSN1^SORT-HIS); In BLI one partner was biotinylated by sortase (GGGG-biotin peptide); also called Mis12C^WT; wild-type Mis12C; source: Tnao38 insect cells (baculovirus from pBIG1A), purified (Talon, SEC); copies: + + +
B6: Mis12C with KNL1_(2,026–2,342) bound (complex, human)
chain 1: B5 chain 1
chain 2: B5 chain 2
chain 3: B5 chain 3
chain 4: T1 sequence (looked up)
chain 5: SAQNEREKLQIKIDEMDKILKKIDNCLTEMETETKNLEDEEKNNPVEEWDSEMRAAEKELEQLKTEEEELQRNLLELEVQKEQTLAQIDFMQKQRNRTEELLDQLSLSEWDVVEWSDDQAVFTFVYDTIQLTITFEESVVGFPFLDKRYRKIVDVNFQSLLDEDQAPPSSLLVHKLIFQYVEEKESWKKTCTTQHQLPKMLEEFSLVVHHCRLLGEEIEYLKRWGPNYNLMNIDINNNELRLLFSSSAAFAKFEITLFLSAYYPSVPLPSTIQNHVGNTSQDDIATILSKVPLENNYLKNVVKQIYQDLFQDCHFYH
notes: MIS12, human; PMF1, human; NSL1, human; DSN1, human; numbering of isoform 1 of the CASC5 gene; also called Mis12C + KNL1; source: Mis12C: Tnao38 insect cells, purified; KNL1: E. coli BL21(DE3)-Codon-plus-RIPL, purified; copies: + + + +
B7: PMF1 (subunit of Mis12C in the KMN structure) (natural protein, human, UniProt Q6P1K2 1-205, looked up)
chain: B5 chain 2
notes: PMF1, human; source: Tnao38 insect cells (baculovirus), co-expressed in Mis12C, purified (Talon, SEC)
B8: NSL1 (subunit of Mis12C in the KMN structure) (natural protein, human, UniProt Q96IY1 1-281, looked up)
chain: B5 chain 3
notes: NSL1, human; source: Tnao38 insect cells (baculovirus), co-expressed in Mis12C, purified (Talon, SEC)

What was measured:
Conditions in all cases: both partners purified
[1] = target: B5; experiment: cryo-EM structure; eight-subunit KMN (full-length Mis12C, SPC24 109–197/SPC25 92–224, ZWINT, KNL1 2,021–2,342), 0.3 mg/ml with 0.003% Triton; reconstruction at 4.5 Å; model fitted from known structures and AF2 predictions and refined against the map
[2] = target: T1, DSN1 (subunit of Mis12C in the KMN …); experiment: as above
[3] = target: B5; experiment: ITC; PEAQ-ITC; 50 mM HEPES pH 8.0, 150 mM NaCl, 1 mM TCEP; 19 injections; one-site binding fit
[4] = target: T2, Ndc80 complex (Ndc80C): NDC80^HEC1, NUF2, SPC24, SPC25 (human, UniProt O14777 1-642; Q9BZD4 1-464; Q8NBT2 1-197; Q9HBM1 1-224); experiment: BLI; Octet SA biosensors loaded with the biotinylated ligand, analyte at different concentrations; 25 °C; 50 mM HEPES pH 8.0, 150 mM NaCl, 2 mM TCEP, 0.05% Tween-20; which partner was loaded is not given
T2 construct: NDC80 (HEC1), human; NUF2, human; SPC24, human; SPC25, human; also called complete Ndc80C; copies: + + +
T2 sequence (O14777 whole entry, chain 1 of 2): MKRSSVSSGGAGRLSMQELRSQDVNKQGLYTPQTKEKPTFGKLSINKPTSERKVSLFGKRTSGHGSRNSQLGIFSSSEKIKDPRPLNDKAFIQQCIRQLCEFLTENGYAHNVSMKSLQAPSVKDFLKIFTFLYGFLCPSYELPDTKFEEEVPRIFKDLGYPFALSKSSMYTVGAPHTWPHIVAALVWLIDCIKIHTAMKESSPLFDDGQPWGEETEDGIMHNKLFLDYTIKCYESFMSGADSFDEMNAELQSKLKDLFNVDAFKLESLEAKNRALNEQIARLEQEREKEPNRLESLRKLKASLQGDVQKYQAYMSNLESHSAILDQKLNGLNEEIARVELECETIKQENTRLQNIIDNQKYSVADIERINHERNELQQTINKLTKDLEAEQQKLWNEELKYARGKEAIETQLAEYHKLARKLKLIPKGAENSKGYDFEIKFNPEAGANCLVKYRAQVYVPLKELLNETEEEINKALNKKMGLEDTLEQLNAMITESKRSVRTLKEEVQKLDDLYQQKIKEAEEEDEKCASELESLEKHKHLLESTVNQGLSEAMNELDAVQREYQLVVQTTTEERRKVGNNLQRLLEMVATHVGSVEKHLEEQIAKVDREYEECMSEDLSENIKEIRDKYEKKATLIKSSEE
T2 sequence (Q9BZD4 whole entry, chain 2 of 2): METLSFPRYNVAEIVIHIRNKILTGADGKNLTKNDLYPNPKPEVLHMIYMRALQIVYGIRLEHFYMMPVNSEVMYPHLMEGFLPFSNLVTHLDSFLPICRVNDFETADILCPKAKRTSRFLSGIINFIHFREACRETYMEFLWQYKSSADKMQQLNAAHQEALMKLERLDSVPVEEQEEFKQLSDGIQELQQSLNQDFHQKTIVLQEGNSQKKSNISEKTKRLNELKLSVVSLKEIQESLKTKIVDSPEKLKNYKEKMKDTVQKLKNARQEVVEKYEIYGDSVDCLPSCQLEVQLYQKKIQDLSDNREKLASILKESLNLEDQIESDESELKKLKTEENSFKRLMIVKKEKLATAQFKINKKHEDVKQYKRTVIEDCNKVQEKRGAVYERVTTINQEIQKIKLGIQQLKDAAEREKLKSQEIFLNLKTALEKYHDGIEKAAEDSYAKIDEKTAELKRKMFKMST

[5] = target: B1; experiment: cryo-EM structure; eight-subunit KMN (full-length Mis12C, SPC24 109–197/SPC25 92–224, ZWINT, KNL1 2,021–2,342), 0.3 mg/ml with 0.003% Triton; reconstruction at 4.5 Å; model fitted from known structures and AF2 predictions and refined against the map

Binder: B1
- binding result [1]: binds
- binding result [2]: binds

Binder: B2
- binding result [2]: binds

Binder: B3
- fold reduction of binding affinity against the wild-type pair [3]: ~27 fold

Binder: B4
- fold reduction of binding affinity against the wild-type pair [3]: ~5 fold

Binder: B5
- Kd [4]: ~6 nM

Binder: B6
- Kd [4]: ~1 nM

Binder: B7
- binding result [5]: binds

Binder: B8
- binding result [5]: binds
